This passage reports Kd results from PMC5828395 (Genes & Development, 2018).

Where no end group is shown, it is not given here.

The target of experiment [1] is GAS41 YEATS domain (amino acids 15–159) (human) (UniProt O95619). Description: ITC.
For experiment [2], the target named is GAS41 YEATS domain (amino acids 15–159) (human, UniProt O95619 15-159). Briefly: ITC.
Chain of GAS41 YEATS domain (amino acids 15–159) (O95619 15-159): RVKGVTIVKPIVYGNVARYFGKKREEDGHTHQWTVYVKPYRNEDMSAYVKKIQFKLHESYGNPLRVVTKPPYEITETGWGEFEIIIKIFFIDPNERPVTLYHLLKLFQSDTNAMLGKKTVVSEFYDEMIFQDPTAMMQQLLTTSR

Chain of GAS41 YEATS domain (amino acids 15–159) (human) (O95619 15-159): as above

The molecule “H3_(15–39)K27ac peptide (from UniProt P68431 16-40)” had an equilibrium dissociation constant (Kd) in experiment [1] of 32.7 µM.
ARTKQTARKSTGGK(Ac)A (peptide, UniProt P68431 2-16, looked up) [H3_(1–15)K14ac peptide] registered a dissociation constant (Kd) in experiment [2] of 13 µM.
